Read-outs that look alike come from different tables or passages of the source.
B1: hu326-2 E46K (antibody, V domains shown)
VH: QVQLVQSGSELKKPGASVKVSCKASGYTFTNYGMNWVRQAPGQGLKWMGWINNNNGEPTYAQGFRGRFVFSLDTSASTAYLQISSLKTEDTAVYFCARDVMDYWGQGTTVTVSS
VL: DIVLTQSPASLAVSPGQRATITCRASESVDNYGYSFMHWYQQKPGQPPKLLIYRASNLESGVPARFSGSGSRTDFTLTINPVEANDTANYYCQQSKEYPTFGGGTKVEIK
notes: mAb; constant regions not restated (hu326-1 is IgG2 / kappa); Back mutation to murine
B2: hu326-2 F95Y (antibody, V domains shown)
VH: QVQLVQSGSELKKPGASVKVSCKASGYTFTNYGMNWVRQAPGQGLEWMGWINNNNGEPTYAQGFRGRFVFSLDTSASTAYLQISSLKTEDTAVYYCARDVMDYWGQGTTVTVSS
VL: DIVLTQSPASLAVSPGQRATITCRASESVDNYGYSFMHWYQQKPGQPPKLLIYRASNLESGVPARFSGSGSRTDFTLTINPVEANDTANYYCQQSKEYPTFGGGTKVEIK
notes: mAb; constant regions not restated (hu326-1 is IgG2 / kappa); Forward mutation to human
B3: hu326-2 S9P (antibody, V domains shown)
VH: QVQLVQSGPELKKPGASVKVSCKASGYTFTNYGMNWVRQAPGQGLEWMGWINNNNGEPTYAQGFRGRFVFSLDTSASTAYLQISSLKTEDTAVYFCARDVMDYWGQGTTVTVSS
VL: DIVLTQSPASLAVSPGQRATITCRASESVDNYGYSFMHWYQQKPGQPPKLLIYRASNLESGVPARFSGSGSRTDFTLTINPVEANDTANYYCQQSKEYPTFGGGTKVEIK
notes: as for B1
B4: hu326-2 T88N (antibody, V domains shown)
VH: QVQLVQSGSELKKPGASVKVSCKASGYTFTNYGMNWVRQAPGQGLEWMGWINNNNGEPTYAQGFRGRFVFSLDTSASTAYLQISSLKNEDTAVYFCARDVMDYWGQGTTVTVSS
VL: DIVLTQSPASLAVSPGQRATITCRASESVDNYGYSFMHWYQQKPGQPPKLLIYRASNLESGVPARFSGSGSRTDFTLTINPVEANDTANYYCQQSKEYPTFGGGTKVEIK
notes: as for B1
B5: hu326-2 S84N (antibody, V domains shown)
VH: QVQLVQSGSELKKPGASVKVSCKASGYTFTNYGMNWVRQAPGQGLEWMGWINNNNGEPTYAQGFRGRFVFSLDTSASTAYLQINSLKTEDTAVYFCARDVMDYWGQGTTVTVSS
VL: DIVLTQSPASLAVSPGQRATITCRASESVDNYGYSFMHWYQQKPGQPPKLLIYRASNLESGVPARFSGSGSRTDFTLTINPVEANDTANYYCQQSKEYPTFGGGTKVEIK
notes: as for B1
B6: hu326-2 A76V (antibody, V domains shown)
VH: QVQLVQSGSELKKPGASVKVSCKASGYTFTNYGMNWVRQAPGQGLEWMGWINNNNGEPTYAQGFRGRFVFSLDTSVSTAYLQISSLKTEDTAVYFCARDVMDYWGQGTTVTVSS
VL: DIVLTQSPASLAVSPGQRATITCRASESVDNYGYSFMHWYQQKPGQPPKLLIYRASNLESGVPARFSGSGSRTDFTLTINPVEANDTANYYCQQSKEYPTFGGGTKVEIK
notes: as for B2
B7: hu326-2 G63D (antibody, V domains shown)
VH: QVQLVQSGSELKKPGASVKVSCKASGYTFTNYGMNWVRQAPGQGLEWMGWINNNNGEPTYAQDFRGRFVFSLDTSASTAYLQISSLKTEDTAVYFCARDVMDYWGQGTTVTVSS
VL: DIVLTQSPASLAVSPGQRATITCRASESVDNYGYSFMHWYQQKPGQPPKLLIYRASNLESGVPARFSGSGSRTDFTLTINPVEANDTANYYCQQSKEYPTFGGGTKVEIK
notes: as for B1
B8: hu326-2 A16E (antibody, V domains shown)
VH: QVQLVQSGSELKKPGESVKVSCKASGYTFTNYGMNWVRQAPGQGLEWMGWINNNNGEPTYAQGFRGRFVFSLDTSASTAYLQISSLKTEDTAVYFCARDVMDYWGQGTTVTVSS
VL: DIVLTQSPASLAVSPGQRATITCRASESVDNYGYSFMHWYQQKPGQPPKLLIYRASNLESGVPARFSGSGSRTDFTLTINPVEANDTANYYCQQSKEYPTFGGGTKVEIK
notes: as for B1
B9: Fab hu317-1_Vh / hu317-1_Vκ (Fab, V domains shown)
VH: QVQLQESGPGLVKPSETLSLTCTVSGFSLTSYGVHWIRQPPGKGLEWLGVIWAGGSTNYNPSLKSRLTISKDNSKSQVSLKMSSVTAADTAVYYCARAYGNYWYIDVWGQGTTVTVSS
VL: DIVMTQSPDSLAVSLGERATINCKASQSVSNDVAWYQQKPGQPPKLLINYAFHRFTGVPDRFSGSGYGTDFTLTISSLQAEDVAVYYCHQAYSSPYTFGGGTKLEIK
B10: Fab hu317-2_S76N / hu317-1_Vκ (Fab, V domains shown)
VH: QVQLQESGPGLVKPSETLSLTCTVSGFSLTSYGVHWIRQPPGKGLEWLGVIWAGGSTNYNPSLKSRLTISKDNSKNQVSLKMSSVTAADTAVYYCARAYGNYWYIDVWGQGTTVTVSS
VL: DIVMTQSPDSLAVSLGERATINCKASQSVSNDVAWYQQKPGQPPKLLINYAFHRFTGVPDRFSGSGYGTDFTLTISSLQAEDVAVYYCHQAYSSPYTFGGGTKLEIK
B11: Fab hu317-3A / hu317-1_Vκ (Fab, V domains shown)
VH: QVQLQESGPGLVKPSETLSLTCTVSGFSLTSYGVHWIRQPPGKGLEWIGVIWAGGSTNYNPSLKSRVTISVDTSKNQFSLKLSSVTAADTAVYYCARAYGNYWYIDVWGQGTTVTVSS
VL: DIVMTQSPDSLAVSLGERATINCKASQSVSNDVAWYQQKPGQPPKLLINYAFHRFTGVPDRFSGSGYGTDFTLTISSLQAEDVAVYYCHQAYSSPYTFGGGTKLEIK
B12: Fab hu317-2_M82L / hu317-1_Vκ (Fab, V domains shown)
VH: QVQLQESGPGLVKPSETLSLTCTVSGFSLTSYGVHWIRQPPGKGLEWLGVIWAGGSTNYNPSLKSRLTISKDNSKSQVSLKLSSVTAADTAVYYCARAYGNYWYIDVWGQGTTVTVSS
VL: DIVMTQSPDSLAVSLGERATINCKASQSVSNDVAWYQQKPGQPPKLLINYAFHRFTGVPDRFSGSGYGTDFTLTISSLQAEDVAVYYCHQAYSSPYTFGGGTKLEIK
B13: Fab hu317-2_V78F / hu317-1_Vκ (Fab, V domains shown)
VH: QVQLQESGPGLVKPSETLSLTCTVSGFSLTSYGVHWIRQPPGKGLEWLGVIWAGGSTNYNPSLKSRLTISKDNSKSQFSLKMSSVTAADTAVYYCARAYGNYWYIDVWGQGTTVTVSS
VL: DIVMTQSPDSLAVSLGERATINCKASQSVSNDVAWYQQKPGQPPKLLINYAFHRFTGVPDRFSGSGYGTDFTLTISSLQAEDVAVYYCHQAYSSPYTFGGGTKLEIK
B14: Fab hu317-2_L48I / hu317-1_Vκ (Fab, V domains shown)
VH: QVQLQESGPGLVKPSETLSLTCTVSGFSLTSYGVHWIRQPPGKGLEWIGVIWAGGSTNYNPSLKSRLTISKDNSKSQVSLKMSSVTAADTAVYYCARAYGNYWYIDVWGQGTTVTVSS
VL: DIVMTQSPDSLAVSLGERATINCKASQSVSNDVAWYQQKPGQPPKLLINYAFHRFTGVPDRFSGSGYGTDFTLTISSLQAEDVAVYYCHQAYSSPYTFGGGTKLEIK
B15: Fab hu317-2_N73T / hu317-1_Vκ (Fab, V domains shown)
VH: QVQLQESGPGLVKPSETLSLTCTVSGFSLTSYGVHWIRQPPGKGLEWLGVIWAGGSTNYNPSLKSRLTISKDTSKSQVSLKMSSVTAADTAVYYCARAYGNYWYIDVWGQGTTVTVSS
VL: DIVMTQSPDSLAVSLGERATINCKASQSVSNDVAWYQQKPGQPPKLLINYAFHRFTGVPDRFSGSGYGTDFTLTISSLQAEDVAVYYCHQAYSSPYTFGGGTKLEIK
B16: Fab hu317-2_K71V / hu317-1_Vκ (Fab, V domains shown)
VH: QVQLQESGPGLVKPSETLSLTCTVSGFSLTSYGVHWIRQPPGKGLEWLGVIWAGGSTNYNPSLKSRLTISVDNSKSQVSLKMSSVTAADTAVYYCARAYGNYWYIDVWGQGTTVTVSS
VL: DIVMTQSPDSLAVSLGERATINCKASQSVSNDVAWYQQKPGQPPKLLINYAFHRFTGVPDRFSGSGYGTDFTLTISSLQAEDVAVYYCHQAYSSPYTFGGGTKLEIK
B17: Fab hu317-2_L67V / hu317-1_Vκ (Fab, V domains shown)
VH: QVQLQESGPGLVKPSETLSLTCTVSGFSLTSYGVHWIRQPPGKGLEWLGVIWAGGSTNYNPSLKSRVTISKDNSKSQVSLKMSSVTAADTAVYYCARAYGNYWYIDVWGQGTTVTVSS
VL: DIVMTQSPDSLAVSLGERATINCKASQSVSNDVAWYQQKPGQPPKLLINYAFHRFTGVPDRFSGSGYGTDFTLTISSLQAEDVAVYYCHQAYSSPYTFGGGTKLEIK
B18: Fab hu317-1_Vh / HU317-2_G100Q (Fab, V domains shown)
VH: QVQLQESGPGLVKPSETLSLTCTVSGFSLTSYGVHWIRQPPGKGLEWLGVIWAGGSTNYNPSLKSRLTISKDNSKSQVSLKMSSVTAADTAVYYCARAYGNYWYIDVWGQGTTVTVSS
VL: DIVMTQSPDSLAVSLGERATINCKASQSVSNDVAWYQQKPGQPPKLLINYAFHRFTGVPDRFSGSGYGTDFTLTISSLQAEDVAVYYCHQAYSSPYTFGQGTKLEIK

Legend:
[1] = molecular target: T1, human PD-1 expressed on cells (human, UniProt Q15116 25-288); assay: FACS on PD-1-expressing cells
T1 construct: whole, on cells; also called HuT78/PD-1; NK92MI/PD-1

[2] = molecular target: T1, human PD-1 expressed on cells; assay: cell-based or functional assay
[3] = molecular target: P3Z chimeric PD-1 receptor (human); assay: cell-based or functional assay
[4] = molecular target: P3Z chimeric PD-1 receptor (human); assay: cell-based or functional assay; remark: listed apart in the source

T1 sequence (Q15116 25-288): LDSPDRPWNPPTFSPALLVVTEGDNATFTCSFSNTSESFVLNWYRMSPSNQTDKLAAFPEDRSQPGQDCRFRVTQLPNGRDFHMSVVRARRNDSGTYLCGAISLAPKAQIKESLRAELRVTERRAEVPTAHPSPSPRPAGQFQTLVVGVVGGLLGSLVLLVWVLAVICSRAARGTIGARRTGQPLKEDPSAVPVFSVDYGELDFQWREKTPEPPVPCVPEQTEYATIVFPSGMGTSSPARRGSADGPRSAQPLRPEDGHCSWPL
Chain of P3Z chimeric PD-1 receptor (human) (chain, as listed by the source mutant limits assumed): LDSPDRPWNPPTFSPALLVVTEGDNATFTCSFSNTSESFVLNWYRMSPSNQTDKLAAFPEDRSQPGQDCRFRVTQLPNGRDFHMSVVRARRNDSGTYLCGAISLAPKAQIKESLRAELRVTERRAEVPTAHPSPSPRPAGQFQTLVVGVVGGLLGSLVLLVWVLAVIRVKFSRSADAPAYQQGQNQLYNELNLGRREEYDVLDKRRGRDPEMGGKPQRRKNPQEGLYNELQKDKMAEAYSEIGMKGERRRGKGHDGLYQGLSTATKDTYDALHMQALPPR

Row | Binder | EC50 [1] | IL-2 release in HuT78/PD-1, EC50 [2] | IL-2 release in HuT78/PD-1, Top line [2] | IL-2 release in HuT78/P3Z, IC50 [3] | IL-2 release in HuT78/P3Z, Max inhibition [3] | IL-2 release in HuT78/P3Z, EC50 [4] | IL-2 release in HuT78/P3Z, Max inhibition [4]
1 | B1 | 0.132 µg/mL | 0.259 µg/mL | 1240 pg/mL | 0.079 µg/mL | 95.2% |  | 
2 | B2 | 0.097 µg/mL | 0.135 µg/mL | 1030 pg/mL | 0.166 µg/mL | 95.6% |  | 
3 | B3 | 0.145 µg/mL | 0.136 µg/mL | 1020 pg/mL | 0.075 µg/mL | 96% |  | 
4 | B4 | 0.098 µg/mL |  |  | 0.102 µg/mL | 95.8% |  | 
5 | B5 | 0.131 µg/mL | 0.126 µg/mL | 1020 pg/mL | 0.06 µg/mL | 96.5% |  | 
6 | B6 | 0.102 µg/mL | 0.112 µg/mL | 1000 pg/mL | 0.071 µg/mL | 96.7% |  | 
7 | B7 | 0.139 µg/mL | 0.12 µg/mL | 1070 pg/mL | 0.064 µg/mL | 96.4% |  | 
8 | B8 | 0.155 µg/mL | 0.126 µg/mL | 1050 pg/mL | 0.078 µg/mL | 96.3% |  | 
9 | B9 |  |  |  |  |  | 0.3 µg/mL | 98.8%
10 | B10 |  |  |  |  |  | 0.28 µg/mL | 98.6%
11 | B11 |  |  |  |  |  | 0.35 µg/mL | 79.7%
12 | B12 |  |  |  |  |  | 0.27 µg/mL | 98.5%
13 | B13 |  |  |  |  |  | 0.38 µg/mL | 98%
14 | B14 |  |  |  |  |  | 0.37 µg/mL | 98.5%
15 | B15 |  |  |  |  |  | 0.31 µg/mL | 98.3%
16 | B16 |  |  |  |  |  | 0.48 µg/mL | 96.5%
17 | B17 |  |  |  |  |  | 0.3 µg/mL | 98.6%
18 | B18 |  |  |  |  |  | 0.27 µg/mL | 98.9%
